Measured values reported in US20250340659A1 (PETMEDIX, published 2025).
Changes are numbered by the printed parent chain.

T1: canine OX40L, full length membrane form, expressed on HEK293 cells (canine)
T1 construct: also called OX40L expressing HEK; HEK OX40L cells
T1 chain: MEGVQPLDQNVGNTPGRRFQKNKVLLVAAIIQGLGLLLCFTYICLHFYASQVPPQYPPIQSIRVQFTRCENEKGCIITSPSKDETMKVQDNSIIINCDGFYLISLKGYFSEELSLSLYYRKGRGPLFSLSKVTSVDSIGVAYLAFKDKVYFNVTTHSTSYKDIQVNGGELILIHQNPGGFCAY

T2: recombinant canine OX40L ECD-TNCc-HIS protein (canine)
T2 construct: also called Trimeric OX40L probe (HIS tag); trimeric canine OX40L
T2 chain: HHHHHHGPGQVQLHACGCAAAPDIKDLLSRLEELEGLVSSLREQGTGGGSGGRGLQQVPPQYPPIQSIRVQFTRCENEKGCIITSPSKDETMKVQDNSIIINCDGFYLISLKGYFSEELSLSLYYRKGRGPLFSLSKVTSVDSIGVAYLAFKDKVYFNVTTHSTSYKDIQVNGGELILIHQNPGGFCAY

B1: PMX083 (antibody, V domains shown)
VH: EVQLVESGGDLVKPGGSLRLSCVASGFTFRTYHMSWVRQAPGKGLQWVAYITRDGISTTYTDAVKGRFTISRDNAKNTLFLQMNSLRADDTAVYYCASDLVLVLGAPFYWGQGTLVTVSS
VL: SYELTQPPSVNVTLGETAHITCGGDSIGRKYVQWIQQNPGQAPVVIIYKDSNRPTGIPERFSGANSGNTATLTISGALAEDEADYYCQVGDSGTKAVFGEGTQLTVL
notes: also called PMX83
B2: PMX098 (antibody, V domains shown)
VH: EVQLVESGGDLVKPGGSLRLSCVASGFTFNTYHMNWVRQAPGKGLHWVAFINSGGSGTSYADTVKGRFTISRDYAKNTLYLQMNSLRAEDTAVYYCASGSIWTHFDYWGQGTLVTVSS
VL: SYVLTQLPSVSLTLRQTAHITCGGDIIGSKSVYWYQQKLGQAPVLIIYRDNNRPTGIPERFSGASSGNTATLTISGALAEDEADYYCQVWDSSTQAMFGGGTHLTVL
B3: PMX087 (antibody, V domains shown)
VH: B2 VH with Q3H, N30S, T31N, N35S, H46Q, T63A, N77S, S100Y
VL: SYVLTQLPSVSVTLRQTARITCGGDIIGSKNVYWYQQKLGQAPILIIYRDSNRPTGIPERFSGASSGNTATLTISGALAEDEADYYCQVWDSSTSVFGGGTHLTVL
B4: PMX088 (antibody, V domains shown)
VH: B2 VH with S56T, S59G, A61S, A97V
VL: B2 VL with L12M, N51T, S93N, M97V
B5: PMX110 (antibody, V domains shown)
VH: B2 VH with K13R, N30S, T31S, N35S, H46Q, G57S, S59T, T63V, K65R, W102L
VL: B2 VL with Y2F, L12V, H19R, I26S, I27V, N51S, S92N, T94N, Q95K
B6: PMX108 (antibody, V domains shown)
VH: EVQLVESGGDLVRPGGSLRLSCVASGFTFTNYHMSWVRQAPGKGLQWVAFINSGGSSTTYTDVVRGRFTISRDYAKNTLYLQMNSLTAEDTAVYYCASGAIWTHFDHWGQGTLVTVSS
VL: B2 VL with Y2F, L12V, H19R, I26S, I27V, N51S, S92N, T94N, Q95K, M97I
B7: PMX109 (antibody, V domains shown)
VH: B6 VH with A100S
VL: B2 VL with Y2F, L12V, H19R, I26S, I27V, N51S, S92N, T94N, Q95K, M97I
B8: PMX111 (antibody, V domains shown)
VH: B6 VH with T30S, N31S, S35N, G55A, T58A, T61A, T87R, A100S, H107F
VL: B2 VL with Y2F, L12V, H19R, I26S, I27V, N51S, S92N, T94N, Q95K
B9: PMX107 (antibody, V domains shown)
VH: AVQLVESGGDLVRPGGSLRLSCVASGFTFSSYHMNWVRQAPGKGLQWVAFINSGGSSTTYADVVRGRFTISRDYAKNTLFLQMNSLRAEDTAVYYCAIVSIWTHFDYWGQGTLVTVSS
VL: B2 VL with Y2F, L12V, H19R, S31N, K38R, I47L, N51T, S92N, T94N, Q95K
B10: PMX291 (antibody, V domains shown)
VH: EVQLVESGGDLLKPGGSLRLSCVASGFPFRNYDMTWVRQAPGKGLQWVAAIHYDGSNTYYTDAVKGRFTISRDNARNTVFLQMNSLRAEDTAVYYCAKKFNNYRPFDYWGQGTLVTVSS
VL: DIVMTQTPPSLSVSPRETPSISCKASQSLLRSDGNTYLEWYLQKPGQSPQLLIYLVSNRFTGVSDRFSGSGSGTDFTLRISRVEANDAGVYYCGQGTQLPWTFGAGTKVELK
B11: PMX085 (antibody, V domains shown)
VH: EVKLVESGGDLVKPEGSLRLSCVVSGFTFSRYGMSWVRQAPGKGLQWVAYISSDGRSSSYTDAVQGRFTISSDNAKNTLYLQMNSLTTEDTAVYYCAKLGRGFNFNFWGQGTLVTVSS
VL: SYVLTQLPSKNVTLKQPAHITCGGDNIGSKSVHWYQQKLGQAPVLIIYYDSSRPTGIPERFSGANSGNTATLTISGALAEDEADYYCQVWDSSASVFGGGTHLTVL
notes: also called PMX85
B12: PMX292 (antibody, V domains shown)
VH: AVQLVESGGDLVRPGGSLRLSCVASGFTFSNFDMYWVRQAPGRGLQWVATISYDGFNTYSTDTVRGRFTISRDNARNTVYLQMNSLRVEDTAVFYCTARRFGLGYWGQGTLVTVSS
VL: DIFMAQTPPSLSVSPRETASISCKASQSLLHSDGNTYLDWYLQKPGQSPQLLIYLVSNRFPGVSDRFSGSGSGTGFTLRISRVEASDTGVYYCGQGTQLPYTFSQGTKLEIK
B13: PMX086 (antibody, V domains shown)
VH: EVQLVESGGDLVKPGGSLRLSCVASGFTFSSYHMSWVRQAPGKGLQWVAFINSAESSTTYADAVKGRFTISRDNAKNTLYLQMNSLRAEDTAVYYCAGGYIWTHFDYWGQGTLVTVSS
VL: B3 VL with N31S, K38N, I44V, S51T

Experiments:
[1] = biological target: T1, canine OX40L, full length membrane …; experiment: flow cytometry
Method: (§1) CHO supernatants diluted in FACS buffer (PBS containing 3% FBS) at 1, 5 or 10 μg/ml were used to screen for their binding capacity to canine OX40L using a cell-based assay. In brief, HEK293 or MEF cells (or any other commonly used cell lines) expressing canine OX40L at the cell surface are incubated with 100 μll of FACS buffer containing the candidate antibody for 30′ on ice. Cells are washed with 150 μl FACS buffer followed by centrifugation at 300 g for 3 min. The cell pellet is resuspended in FACS buffer containing a 1:1000 dilution of a fluorescently labelled secondary antibody recognising the canine Fc region of the test antibody for 30 min in the dark, followed by washing with 150 μl FACS buffer. Cells are resuspended in FACS buffer and flow cytometry performed using either a […] cytometer, followed by data analysis using FlowJo (FIG. 6 and Table 4).

[2] = biological target: T1, canine OX40L, full length membrane …; experiment: cell-based or functional assay
[3] = biological target: T1, canine OX40L, full length membrane …; experiment: flow cytometry, OX40L HEK minus WT HEK
Method: as §1

[4] = biological target: T2, recombinant canine OX40L ECD-TNCc-HIS …; experiment: SPR Koff (kd1)
Method: (§2) Affinity (Kd) of OX40L antibodies is measured by SPR, using a recombinant canine OX40L ECD-TNCc-HIS protein (Seq ID 811) as the capturing agent (FIG. 5B).
(§3) Functional affinity is determined using a Biakore 8K (Cytiva). in brief, purified OX40L ECD-TNCc-HIS protein is covalently bound at low density to the surface of a CM5 sensor chip (Cytiva) by amine coupling, using the manufacturer's recommended protocol. Candidate antibodies are subsequently passed across the chip surface at a range of concentrations and affinity determined using the dedicated software (Biacore Insight Evaluation Software). Curves were fitted using a bivalent analyte binding model.

[5] = biological target: T2, recombinant canine OX40L ECD-TNCc-HIS …; experiment: SPR Koff (kd2)
Method: as §2, §3

[6] = biological target: T2, recombinant canine OX40L ECD-TNCc-HIS …; experiment: SPR KD1, bivalent analyte model
Method: as §2, §3

Binder	GEO mean OX40L expressing HEK [1]	% Signal Inhibition Average [2]	% Signal Inhibition Rep1 [2]	% Signal Inhibition Rep2 [2]	% Signal Inhibition Rep3 [2]	GEO mean difference [3]	koff [4]	koff [5]	Kd [6]
B1	701000	71.1%	66%	65.8%	81.6%	690000	–	–	–
B2	–	45%	40.4%	55%	39.8%	–	0.00147 s⁻¹	1.03 s⁻¹	14.1 nM
B3	1.05e+06	32.6%	29.8%	46.2%	21.6%	1.04e+06	–	–	–
B4	783000	7.21%	17%	3.51%	1.17%	775000	–	–	–
B5	31900	37.4%	55.2%	43.1%	13.7%	28400	–	–	–
B6	611000	82.2%	95.6%	89.8%	61.3%	607000	–	–	–
B7	633000	53.3%	67.9%	69.5%	22.5%	629000	–	–	–
B8	647000	38.9%	44.2%	37.4%	35.2%	643000	–	–	–
B9	58800	-5.31%	7.14%	20.9%	-44%	55200	–	–	–
B10	463000	73.3%	95.9%	70.3%	53.6%	459000	–	–	–
B11	839000	46.9%	43.8%	56.2%	40.8%	826000	–	–	–
B12	471000	71.6%	97.5%	54.4%	62.9%	467000	–	–	–
B13	857000	18.3%	5.85%	35.1%	14%	849000	–	–	–
